The results in this text go back to US20230055408A1 (JIANGSU HENGRUI MEDICINE, published 2023).

To fix the notation:
T1: monkey CEA expressed on CHO cell surface (cynomolgus monkey)
T1 construct: also called cynoCEA-CHO; monkey CEA proteins on the cell surface
T1 chain: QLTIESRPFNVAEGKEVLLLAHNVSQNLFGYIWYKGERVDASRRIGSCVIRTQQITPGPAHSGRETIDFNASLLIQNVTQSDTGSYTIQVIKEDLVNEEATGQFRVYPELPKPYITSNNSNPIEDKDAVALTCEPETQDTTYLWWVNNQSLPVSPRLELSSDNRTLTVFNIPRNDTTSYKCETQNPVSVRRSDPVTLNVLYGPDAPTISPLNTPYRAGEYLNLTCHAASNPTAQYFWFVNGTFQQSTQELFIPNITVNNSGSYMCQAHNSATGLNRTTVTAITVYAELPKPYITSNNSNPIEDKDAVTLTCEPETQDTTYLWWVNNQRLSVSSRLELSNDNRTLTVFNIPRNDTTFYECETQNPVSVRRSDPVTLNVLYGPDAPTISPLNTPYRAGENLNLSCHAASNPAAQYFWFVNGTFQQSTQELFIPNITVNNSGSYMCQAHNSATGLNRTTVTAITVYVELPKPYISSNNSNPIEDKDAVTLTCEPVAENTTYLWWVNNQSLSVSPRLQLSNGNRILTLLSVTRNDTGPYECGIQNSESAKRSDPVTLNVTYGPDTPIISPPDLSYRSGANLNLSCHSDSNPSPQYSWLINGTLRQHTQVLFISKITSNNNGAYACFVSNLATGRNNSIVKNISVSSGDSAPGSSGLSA

T2: human CEA protein on the cell surface (human, UniProt P06731 35-685)
T2 construct: whole, on cells; also called CEACAM-5; CD66e
T2 sequence (looked up): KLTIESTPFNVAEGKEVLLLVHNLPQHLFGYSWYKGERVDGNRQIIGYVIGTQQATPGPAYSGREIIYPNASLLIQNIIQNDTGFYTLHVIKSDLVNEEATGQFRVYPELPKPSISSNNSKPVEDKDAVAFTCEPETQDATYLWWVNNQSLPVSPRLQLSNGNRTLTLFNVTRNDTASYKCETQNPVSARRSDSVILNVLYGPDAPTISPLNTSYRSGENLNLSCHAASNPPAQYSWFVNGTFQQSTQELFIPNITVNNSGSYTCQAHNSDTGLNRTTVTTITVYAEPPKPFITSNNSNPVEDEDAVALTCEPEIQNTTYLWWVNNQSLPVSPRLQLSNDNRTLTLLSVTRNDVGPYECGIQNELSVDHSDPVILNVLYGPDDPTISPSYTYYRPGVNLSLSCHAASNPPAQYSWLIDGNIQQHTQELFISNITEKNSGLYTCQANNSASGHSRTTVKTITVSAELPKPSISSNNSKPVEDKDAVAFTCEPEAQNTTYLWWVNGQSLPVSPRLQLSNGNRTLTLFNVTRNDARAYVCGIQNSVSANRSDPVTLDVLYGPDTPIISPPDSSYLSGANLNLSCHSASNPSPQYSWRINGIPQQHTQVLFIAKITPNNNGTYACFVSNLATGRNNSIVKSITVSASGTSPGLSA

B1: Hu103-3 (antibody, human IgG1, lambda)
heavy: not shown
light: ELVLTQSPSASASLGASVKLTCTLSSQHSTYTIEWYQQQPEKGPRYVMELKKDGSHSTGDGIPDRFSGSSSGAERYLTISSLQSEDEADYYCGVGNTIKEQFVYVFGGGTKLTVLGQPKANPTVTLFPPSSEELQANKATLVCLISDFYPGAVTVAWKADGSPVKAGVETTKPSKQSNNKYAASSYLSLTPEQWKSHRSYSCQVTHEGSTVEKTVAPTECS
B2: Hu103-14 (antibody, human IgG1, lambda)
heavy: not shown
light: B1 light with L4V, G43P, Y91I
B3: Hu103-22 (antibody, human IgG1, lambda)
heavy: not shown
light: B1 light with L4V, G43P, Y91I
B4: Hu103-21 (antibody, human IgG1, lambda)
heavy: not shown
light: B1 light with G43P, Y91I
B5: Hu103-13 (antibody, human IgG1, lambda)
heavy: not shown
light: B1 light with G43P, Y91I
B6: Hu103-18 (antibody, human IgG1, lambda)
heavy: not shown
light: B1 light with V47L
B7: Hu103-19 (antibody, human IgG1, lambda)
heavy: not shown
light: B1 light
B8: Hu103-20 (antibody, human IgG1, lambda)
heavy: not shown
light: B1 light with L4V
B9: Hu103-15 (antibody, human IgG1, lambda)
heavy: not shown
light: B1 light with L4V, G43P, E74D, Y91I
B10: Hu103-23 (antibody, human IgG1, lambda)
heavy: not shown
light: B1 light with L4V, G43P, E74D, Y91I
B11: Hu103-17 (antibody, human IgG1, lambda)
heavy: not shown
light: B1 light with Y36H, V47L
B12: Hu103-9 (antibody, human IgG1, lambda)
heavy: not shown
light: B1 light with Y36H, V47L
B13: Hu103-4 (antibody, human IgG1, lambda)
heavy: not shown
light: B1 light with L4V
B14: Hu103-6 (antibody, human IgG1, lambda)
heavy: not shown
light: B1 light with L4V, G43P, Y91I
B15: Hu103-12 (antibody, human IgG1, lambda)
heavy: not shown
light: B1 light with L4V
B16: Hu103-7 (antibody, human IgG1, lambda, V domains shown)
VH: EVQLVQSGSELKKPGASVKVSCKASGYTFTTYGVIWVRQAPGQGLEWMGWINTYSGVPTYADDFKGRFVFSLDTSVSTAYLQISSLKAEDTAVYYCARKKTLTTVTPWFAYWGQGTLVTVSS
VL: ELVVTQSPSASASLGASVKLTCTLSSQHSTYTIEWYQQQPEKPPRYVMELKKDGSHSTGDGIPDRFSGSSSGADRYLTISSLQSEDEADYICGVGNTIKEQFVYVFGGGTKLTVLG
B17: Hu103-5 (antibody, human IgG1, lambda)
heavy: not shown
light: B1 light with G43P, Y91I
B18: Hu103-10 (antibody, human IgG1, lambda)
heavy: not shown
light: B1 light with V47L
B19: Hu67-7 (antibody, V domains shown)
VH: EVQLVQSGAEVKKPGESLKISCKGSGYSFTDYHMNWVRQMPGKGLEWMGDINPDIGGTSYNQNFKGQVTISADKSISTAYLQWSSLKASDTAMYYCARWDFDSFANWGQGTLVTVSS
VL: EIVMTQSPATLSVSPGERATLSCRASESVSIIGTNLIHWYQQKPGQAPRLLIYHASNLETGIPARFSGSGSGTEFTLTISSLQSEDFAVYYCLQSRKIPYTFGGGTKVEIKR
B20: Hu67-11 (antibody, human IgG1, kappa, V domains shown)
VH: B19 VH with R38K, Q67K, A72V
VL: DIVMTQSPDSLAVSLGERATINCRASESVSIIGTNLIHWYQQKPGQPPKLLIYHASNLETGVPDRFSGSGSGTDFTLTISSLQAEDVAVYYCLQSRKIPYTFGGGTKVEIKR
B21: Hu67-12 (antibody, V domains shown)
VH: B19 VH with R38K, Q67K, A72V
VL: B19 VL
B22: Hu47-10 (antibody, human IgG1, kappa, V domains shown)
VH: EVQLVQSGSELKKPGASVKVSCKASGYTFTTYGMSWVKQAPGQGLKWMGWINTYSGVPTYADDFKGRFVFSLDTSVSTAYLQISSLKAEDTAVYYCARRGNYGRWDFDVWGQGTTVTVSS
VL: EIVLTQSPDFQSVTPKEKVTITCSVSSTISSSNLHWYQQKPDQSPKPLIYGTSNLASGVPSRFSGSGSGTDYTLTINSLEAEDAATYYCQQWSIYPLTFGQGTKLEIKR
B23: Hu47-6 (antibody, human IgG1, kappa, V domains shown)
VH: B22 VH with K38R
VL: B22 VL

Residue numbers refer to the chain shown, from its start.

The target of one assay is T1, monkey CEA expressed on CHO cell surface. Put plainly: FACS, cynoCEA-CHO cells. How it is done: (§1) In order to detect the binding of the antibody to the CEA protein on the cell surface, the binding activity of the antibody was determined by FACS using cells expressing CEA on the cell surface. Cells were harvested and centrifuged at 400 g at 4° C. for 5 min. Pre-cooled PBS containing FBS at final concentration 10% was added, and the mixture was centrifuged at 400 g at 4° C. for 5 min; the procedures were repeated twice. The cells were seeded into a 96-well plate at 10⁵ cells/well, and 100 μL of gradient diluted antibody solution was added to each well. The plate was incubated at 4° C. for 60 min and centrifuged, and the supernatant was removed. 250 μL of pre-cooled PBS containing FBS at final concentration 10% was added to each well to resuspend the cells, and the suspension was centrifuged at 400 g at 4° C. for 5 min, followed by the removal of the supernatant; the procedures were repeated twice. 50 μL of 1:200 diluted secondary antibody Alexa Fluor@488 goat anti-human IgG (H+L) (Lifetechologies, Cat #A11013) was added. […] 250 μL of pre-cooled PBS containing FBS at final concentration 10% was added to each cell to resuspend the cells, and the suspension was centrifuged at 400 g at 4° C. for 5 min; the procedures were repeated twice. 100 μL of pre-cooled PBS was added to each well to resuspend the cells. The plate was analyzed by a flow cytometer (BD, FACSverse) for fluorescence signal values.
Take B1: a half-maximal response (EC50) required 1.18 nM.

In the case of B2, the EC50 was 1.37 nM.

Consider B3, for which the EC50 was determined as 1.02 nM.

Consider B4, for which the concentration for a half-maximal effect (EC50) came to 1.17 nM.

B5 registered a concentration giving a half-maximal response (EC50) of 1.01 nM.

With B6, it took 0.89 nM to reach a half-maximal effect (EC50).

For B7, a half-maximal response (EC50) required 0.96 nM.

In the case of B8, the EC50 was found to be 0.98 nM.

B9 gave an EC50 of 1.36 nM.

B10 came in with a concentration giving a half-maximal response (EC50) of 0.93 nM.

The molecule B11 yielded an EC50 of 1.52 nM.

As to B12, a half-maximal effect (EC50) was put at 1.61 nM.

Consider B13, for which the concentration giving a half-maximal response (EC50) stood at 1.32 nM.

B14: a half-maximal response (EC50) required 1.56 nM.

In turn, B15 came in with an EC50 of 1.08 nM.

For B16, the concentration giving a half-maximal response (EC50) was found to be 1.62 nM.

Turning to B17, a half-maximal response (EC50) required 1.47 nM.

B18: the response was half-maximal at 1 nM (EC50).

Take B19: the 50% effective concentration (EC50) was found to be 7.2 nM.

B20 showed an EC50 of 4.66 nM.

Molecule B21 showed an EC50 of 5.31 nM.

Regarding B22, a half-maximal response (EC50) required 0.27 nM.

As to B23, the EC50 amounted to 0.3 nM.

In the next assay the target is T2, human CEA protein on the cell surface. Put plainly: FACS, MKN45 cells. As for the experimental part: as §1
For the molecule B1, the response was half-maximal at 1.91 nM (EC50).

In turn, B2 had an EC50 of 2.41 nM.

For the molecule B3, the concentration giving a half-maximal response (EC50) was determined as 3.64 nM.

Molecule B4 registered an EC50 of 1.34 nM.

On to B5, for which the EC50 is 2.53 nM.

In turn, B6 gave a concentration giving a half-maximal response (EC50) of 2.75 nM.

In turn, B7 gave an EC50 of 2.42 nM.

Molecule B8 returned a half-maximal effective concentration (EC50) of 2.19 nM.

B9 came in with an EC50 of 2.13 nM.

As for B10, the EC50 was 2.9 nM.

B11 showed a 50% effective concentration (EC50) of 2.92 nM.

Consider B12, for which a half-maximal effect (EC50) was put at 2.95 nM.

Take B13: it took 2.62 nM to reach a half-maximal effect (EC50).

Molecule B14 yielded a 50% effective concentration (EC50) of 1.27 nM.

The molecule B15 displayed an EC50 of 2.38 nM.

Molecule B16 returned an EC50 of 2.2 nM.

B17 showed an EC50 of 2.38 nM.

The molecule B18 gave an EC50 of 2.23 nM.

With B19, the EC50 turned out to be 3.88 nM.

Turning to B20, the EC50 is 2.26 nM.

The molecule B21 showed an EC50 of 3.2 nM.

B22 yielded a concentration for a half-maximal effect (EC50) of 2.27 nM.

The molecule B23 returned an EC50 of 2.5 nM.
